Measured values taken from patent publication US20200308591A1, “PROMOTER REGION ANALYSIS METHODS AND CELLS FOR PRACTICING SAME” (Eurofins DiscoverX Corporation, priority 2019, published 2020).
Like-named read-outs stand apart in the source and are kept apart here.

Columns and labels:
TNFα = TNFα (Homo sapiens, UniProt P01375); assay: U2OS NFkB EFC reporter assay, inhibition of TNFα-stimulated NF-κB signaling; format: cell-based
Description: FIG. 5. Screening of inhibitors using U2OS NFkB EFC reporter cell-based assay. U2OS NFkB EFC reporter cells were treated with 2 nM TNFα (agonist) with or without various concentrations (and 3 lots) of anti-TNFα inhibitor adalimumab. In this example, the 3 lots of Humira tested were all derived from lot #1047318 run through a forced degradation protocol to simulate decreased specific activity or loss of activity where samples were non-stressed (e.g. the control), stressed 70° C. for 15 min and stressed 70° C. for 30 min.
U2OS NF-κB EFC Reporter cells can also be used to measure inhibition and study inhibitors of NF-κB signaling. […] The dose-dependence of this inhibitory response allowed measurement of the potency of different lots of adalimumab. […] Note that forced degradation is a method used in development of assay for biologics (protein therapeutics) to simulate lots with different potency, e.g. for QC/lot release assays, or loss of potency from various causes. […] The stability of Humira® over time can also be studied using this assay. It can be seen that two lots of Humira® stored at 4° C.
FIG. 6. […] The stability of expired lot #1017235 was also equivalent to that of lot #1047318 in the forced degradation experiment shown in FIG. 5.

[1] = biological target: CD40 receptor, endogenous in U2OS NFκB EFC reporter cells (UniProt P25942); assay: cell-based or functional assay
[2] = biological target: human T-cell receptor CD3 subunit on Jurkat cells (human) (UniProt P07766); assay: cell-based or functional assay
NFAT signaling pathways = assay: U2OS NFAT EFC reporter assay, PMA/ionomycin stimulation; format: cell-based; conditions: 5,000 cells, stimulated 20h, components given together as cocktail, read-out: potency of the cocktail expressed as component concentration
Description: NFAT EFC Reporter construct includes a promoter with 4 tandemly repeated (4×) NFAT transcription factor binding response elements, each having the sequence: […] (SEQ ID NO:5).
Cells were stimulated for 20h followed by detection by PathHunter® FLASH detection reagent (+Enzyme Acceptor (EA)) with cell lysis for 1h. 5K and 10K refers to the number of cells plated in each well of a 384 well plate. S/B is signal (top) over background (bottom) of the assay response curve.
A “cell stimulation” cocktail of phorbol 12-myristate 13-acetate (PMA) and ionomycin is known to activate “NFAT signaling pathways” and the NFAT transcription factor. […] Inhibition could be detected as decreases in relative light units (RLUs) with test compounds in the presence of stimulating doses of cell stimulation cocktail or other activating ligands.

IL2 promoter = assay: Jurkat IL2-promoter EFC reporter assay; format: cell-based; conditions: 5K cells, stimulated 16h; ionomycin via NFAT, PMA via AP-1 response elements
Description: FIG. 9. Plasmid map for IL2-Promoter-EFC Reporter Plasmid. In this reporter construct, the complete endogenous IL2 gene promoter (“IL2prom”), which contains multiple specific transcription factor binding sites is fused upstream of and drives expression of carrier protein-ePL which is fused to a carrier protein. Contained within the IL2 promoter are binding sites for NFAT (1), NFkB (2), OCT (3), ARRE-2 (4) and NFAT/API (6) transcription factors and the IL2 minimal promoter (7). The DNA sequence of the IL2 promoter used is gtac[…]gctag (SEQ ID NO: 11) and is comprised of 8 different transcription factor binding sites and an IL-2 core promoter as described by Weaver et. al. (Molecular Immunology, 6 Mar. 2007, 44(11):2813-2819). The following 8 DNA elements […] (SEQ ID NO: 12), […] (SEQ ID NO:13), […] (SEQ ID NO:14), […] (SEQ ID NO:15), […] (SEQ ID NO:16), […] […]
FIG. 10. […] 5K Jurkat IL2 promoter reporter cells were plated in wells of 384 well plate and stimulated for 16h with either […] (squares) or […]+CD28 antibody (circles) at 37′C prior to adding FLASH detection reagent (+5×EA) with cell lysis (and reading EFC luminescence). […]
FIG. 11. […] 5K cells were plated in wells of 384 well plate and stimulated for 16h prior to adding FLASH detection reagent (+5×EA) with cell lysis (and reading luminescence). S/B is calculated by taking the RLU (with PMA/ionomycin)/RLU (without PMA/ionomycin).

[3] = biological target: endogenous IL-6 receptor in HepG2 cells (UniProt P08887); assay: cell-based or functional assay
Sequence of endogenous IL-6 receptor in HepG2 cells (P08887 20-468): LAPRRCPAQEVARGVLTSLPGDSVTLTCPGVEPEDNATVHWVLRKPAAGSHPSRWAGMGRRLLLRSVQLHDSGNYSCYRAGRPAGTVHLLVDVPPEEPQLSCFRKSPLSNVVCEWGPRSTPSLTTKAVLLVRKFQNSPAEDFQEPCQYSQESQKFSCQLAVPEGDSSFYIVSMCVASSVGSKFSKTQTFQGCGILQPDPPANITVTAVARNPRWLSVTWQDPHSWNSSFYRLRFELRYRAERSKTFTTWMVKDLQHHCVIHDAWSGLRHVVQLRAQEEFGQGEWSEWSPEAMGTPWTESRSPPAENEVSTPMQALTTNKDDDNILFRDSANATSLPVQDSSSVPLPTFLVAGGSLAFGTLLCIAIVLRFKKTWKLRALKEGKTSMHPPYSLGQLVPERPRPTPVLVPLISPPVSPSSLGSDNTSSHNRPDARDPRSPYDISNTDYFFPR

Sequence of CD40 ligand (CD40L) (P29965 113-261 limits assumed): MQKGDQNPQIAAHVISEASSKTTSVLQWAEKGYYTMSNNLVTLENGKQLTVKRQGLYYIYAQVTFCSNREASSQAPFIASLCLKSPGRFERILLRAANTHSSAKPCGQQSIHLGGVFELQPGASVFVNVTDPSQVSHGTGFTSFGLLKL
Sequence of CD40 receptor, endogenous in U2OS NFκB EFC reporter cells (P25942 21-277 limits assumed): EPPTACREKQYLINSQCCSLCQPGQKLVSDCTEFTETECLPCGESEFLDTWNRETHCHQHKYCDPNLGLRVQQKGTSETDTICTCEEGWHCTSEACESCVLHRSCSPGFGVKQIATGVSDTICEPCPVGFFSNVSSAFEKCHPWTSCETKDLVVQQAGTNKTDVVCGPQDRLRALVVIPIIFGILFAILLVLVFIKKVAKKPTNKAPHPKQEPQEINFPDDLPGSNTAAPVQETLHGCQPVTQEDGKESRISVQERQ
Sequence of IL-6 (P05231 30-212 limits assumed): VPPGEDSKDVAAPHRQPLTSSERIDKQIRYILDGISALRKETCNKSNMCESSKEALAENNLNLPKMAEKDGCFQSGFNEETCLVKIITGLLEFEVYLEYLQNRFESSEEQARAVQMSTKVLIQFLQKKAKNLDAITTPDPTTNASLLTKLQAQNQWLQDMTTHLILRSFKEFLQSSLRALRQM
Sequence of TNFα (P01375 77-233 limits assumed): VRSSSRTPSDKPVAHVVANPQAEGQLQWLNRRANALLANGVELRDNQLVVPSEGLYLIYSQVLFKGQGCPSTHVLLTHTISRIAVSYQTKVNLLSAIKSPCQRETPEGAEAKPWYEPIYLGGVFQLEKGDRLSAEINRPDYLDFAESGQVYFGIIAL

Molecule: adalimumab
- inhibition of TNFα-stimulated NF-κB signaling (TNFα; 2 nM TNFα (agonist)): can inhibit
- change of inhibitory potency after forced degradation (TNFα; samples subjected to forced degradation for 0, 15 or 30 min at 70° C.): graded loss of potency (right shift)

Molecule: CD40 ligand (CD40L) (from UniProt P29965 113-261)
- EC50 for control agonist stimulation, U2OS NF-κB pathway reporter cell line (Example 12) [1]: 0.0886 µg/mL
- EC50 for control agonist stimulation, U2OS NFκB pathway reporter cell line (Example 7) [1]: 0.225 µg/mL
- signal:background ratio at agonist EMAX, U2OS NFκB pathway reporter cell line (Example 7) [1]: 26.3
- signal:background ratio, U2OS NF-κB pathway reporter cell line (Example 12) [1]: 103

Molecule: anti-CD3 antibody [OKT3]
- EC50 for control agonist stimulation, Jurkat NFAT pathway reporter cell line (Example 8, plate-coated antibody) [2]: 0.302 µg/mL
- signal:background ratio at agonist EMAX, Jurkat NFAT pathway reporter cell line (Example 8) [2]: 7.6

Molecule: CCCCCCCCCCCCCC(=O)O[C@@H]1[C@@H](C)[C@@]2(O)[C@@H](C=C(CO)C[C@]3(O)C(=O)C(C)=C[C@@H]23)[C@@H]2C(C)(C)[C@]12OC(C)=O [PMA, phorbol 12-myristate 13-acetate]
- EC50 (NFAT signaling pathways): 3.8 nM
- activation of elements in the IL2-promoter EFC reporter construct (IL2 promoter): increase the activation

Molecule: OKT3 ligand expressed and presented on the surface of CHO-K1 cells (scFv)
- EC50 of stimulating OKT3 cells, Jurkat NFAT EFC reporter co-culture assay [2]: 700 cells

Molecule: IL-6 (from UniProt P05231 30-212) (ligand)
- EC50 for control agonist stimulation, HepG2 STAT3 pathway reporter cell line [3]: 0.000601 µg/mL
- signal:background ratio at agonist EMAX, HepG2 STAT3 pathway reporter cell line [3]: 21.3

Molecule: C[C@H](CCC(=O)O)C[C@H](C)C[C@H](C)C(=O)/C=C(\O)[C@H](C)C[C@H](C)C/C=C/[C@@H](C)[C@@H](O)[C@@H](C)[C@@H](O)C[C@@H]1CC[C@@](C)([C@H]2CC[C@@](C)([C@@H](C)O)O2)O1 [ionomycin]
- EC50 (NFAT signaling pathways; Homo sapiens, U2OS): 63 nM
- activation of elements in the IL2-promoter EFC reporter construct (IL2 promoter): increase the activation
